Target: Timeless (optimised construct);Tipin (human;human, UniProt Q9UNS1;Q9BVW5 1-238+=GSTGST+331-1208;1-301, internal_change|)
Assay: EMSA

B1: dsG4 (dsGQ) (structured_DNA)
DNA 1: ACGAGAGCTAGCACATTTTGAGGGTGGGTAGGGTGGGTAATTTTCACGTAGAACCTGT
DNA 2: ACAGGTTCTACGTGATTTTTTTTTTTTTTTTTTTTTTTTTTTTTGTGCTAGCTCTCGT
B1: binds.

B2: dsHP (structured_DNA)
DNA 1: ACGAGAGCTAGCACATTTTGAGGCTGCGTTTCGCAGCCTCAATTTCACGTAGAACCTGT
DNA 2: ACAGGTTCTACGTGATTTTTTTTTTTTTTTTTTTTTTTTTTTTTGTGCTAGCTCTCGT
B2: no binding.

Reference: paper doi:10.1101/826578
